Experimental data as given in the Immune Epitope Database (IEDB).
pIC50, pKd: −log10 of the molar value. One block for each sequence: values may come before it.

Key:
HLA-A*24:02 = experiment: IEDB peptide-MHC binding, purified MHC/competitive/fluorescence; ≥ and ≤ were set here for values at or beyond the usual limits of such assays
HLA-B*15:01 [1] = experiment: as above
HLA-A*03:01 [2] = experiment: as above
HLA-A*11:01 = experiment: as above
HLA-A*03:01 [3] = experiment: IEDB peptide-MHC binding, purified MHC/competitive/fluorescence; filed as Kd, often an IC50 or EC50 that approximates it; ≥ and ≤ were set here for values at or beyond the usual limits of such assays
HLA-B*07:02 = experiment: IEDB peptide-MHC binding, purified MHC/competitive/radioactivity; filed as Kd, often an IC50 or EC50 that approximates it; ≥ and ≤ were set here for values at or beyond the usual limits of such assays
HLA-B*35:01 = experiment: as above
HLA-B*51:01 [4] = experiment: as above
HLA-B*53:01 = experiment: as above
HLA-B*54:01 = experiment: as above
HLA-A*01:01 = experiment: as above; settings: source organism: Dengue virus 1 Brazil/97-11/1997
HLA-A*26:01 [5] = experiment: as above; settings: source organism: Dengue virus 1 Brazil/97-11/1997
HLA-A*30:01 = experiment: as above; settings: source organism: Dengue virus 1 Brazil/97-11/1997
HLA-A*30:02 = experiment: as above; settings: source organism: Dengue virus 1 Brazil/97-11/1997
HLA-B*15:01 [6] = experiment: as above; settings: source organism: Dengue virus 1 Brazil/97-11/1997
HLA-A*02:01 [7] = experiment: IEDB peptide-MHC binding, purified MHC/competitive/fluorescence; ≥ and ≤ were set here for values at or beyond the usual limits of such assays
HLA-A*69:01 = experiment: IEDB peptide-MHC binding, purified MHC/direct/fluorescence; filed as Kd, often an IC50 or EC50 that approximates it; ≥ and ≤ were set here for values at or beyond the usual limits of such assays; settings: source organism: dengue virus type 3
HLA-A*02:03 = experiment: IEDB peptide-MHC binding, purified MHC/competitive/radioactivity; filed as Kd, often an IC50 or EC50 that approximates it; ≥ and ≤ were set here for values at or beyond the usual limits of such assays; settings: source organism: Dengue virus 3 Martinique/1243/1999
HLA-A*02:17 = experiment: as above; settings: source organism: Dengue virus 3 China/80-2/1980
HLA-A*02:01 [8] = experiment: IEDB peptide-MHC binding, purified MHC/direct/fluorescence; filed as Kd, often an IC50 or EC50 that approximates it; ≥ and ≤ were set here for values at or beyond the usual limits of such assays; settings: source organism: Reston ebolavirus - Reston
HLA-A*26:01 [9] = experiment: IEDB peptide-MHC binding, purified MHC/competitive/fluorescence; filed as Kd, often an IC50 or EC50 that approximates it; ≥ and ≤ were set here for values at or beyond the usual limits of such assays; settings: source organism: Reston ebolavirus - Reston (1989)
HLA-B*18:01 = experiment: as above; settings: source organism: Reston ebolavirus - Reston (1989)
HLA-B*27:03 = experiment: as above; settings: source organism: Reston ebolavirus - Reston (1989)
HLA-B*39:01 = experiment: as above; settings: source organism: Reston ebolavirus - Reston (1989)
HLA-B*46:01 = experiment: as above; settings: source organism: Reston ebolavirus - Reston (1989)
HLA-B*51:01 [10] = experiment: as above; settings: source organism: Reston ebolavirus - Reston (1989)
HLA-B*57:01 = experiment: as above; settings: source organism: Reston ebolavirus - Reston (1989)
[11] = source organism: Zaire ebolavirus
[12] = source organism: Vaccinia virus
[13] = source organism: Mammarenavirus lassaense
[14] = source organism: Vaccinia virus Copenhagen
[15] = source organism: Mammarenavirus juninense
[16] = source organism: Vaccinia virus WR
[17] = source organism: Triticum aestivum

Sequence: AQREIFSAW
pIC50 (HLA-A*24:02; source organism: Variola virus): 7.41 | pIC50 (HLA-B*15:01 [1]; source organism: Variola virus): 5.19

Sequence: CAGDFAFHK
pIC50 (HLA-A*03:01 [2]; [11]): 4.19 | pIC50 (HLA-A*11:01; [11]): 5.86

Sequence: CLRIPMTDH
pKd (HLA-A*03:01 [3]; source organism: Listeria monocytogenes EGD-e): ≤ 4.70

Sequence: EKSSKYYIK
pIC50 (HLA-A*11:01; [12]): ≤ 4.10 | pIC50 (HLA-A*24:02; [12]): ≤ 3.84

Sequence: FPAGLTYSQL
pKd (HLA-B*07:02; [13]): 6.81 | pKd (HLA-B*35:01; [13]): 6.94 | pKd (HLA-B*51:01 [4]; [13]): 5.08 | pKd (HLA-B*53:01; [13]): 6.95 | pKd (HLA-B*54:01; [13]): 6.22

Sequence: FPAIFSAEV
pKd (HLA-B*07:02; [13]): 7.19 | pKd (HLA-B*35:01; [13]): 7.77 | pKd (HLA-B*51:01 [4]; [13]): 7.07 | pKd (HLA-B*53:01; [13]): 7.39 | pKd (HLA-B*54:01; [13]): 8.16

Sequence: FTMAHRKPTY
pKd (HLA-A*01:01): 5.04 | pKd (HLA-A*26:01 [5]): 6.32 | pKd (HLA-A*30:01): 5.64 | pKd (HLA-A*30:02): 6.13 | pKd (HLA-B*15:01 [6]): 6.50 | pKd (HLA-B*35:01; source organism: Dengue virus 1 Brazil/97-11/1997): 6.16

Sequence: GAMVEYVSA
pIC50 (HLA-A*02:01 [7]; [14]): 4.48 | pIC50 (HLA-B*15:01 [1]; [14]): 4.59

pKd (HLA-A*03:01 [3]; source organism: Escherichia coli 536): ≤ 4.70
Sequence: GISRNTVKR

Sequence: HPDMDSLMI
pKd (HLA-B*07:02; [15]): 5.76 | pKd (HLA-B*35:01; [15]): 5.70 | pKd (HLA-B*51:01 [4]; [15]): 5.54 | pKd (HLA-B*53:01; [15]): 7.10 | pKd (HLA-B*54:01; [15]): ≤ 4.63

Sequence: IIHDFVDKT
pIC50 (HLA-A*02:01 [7]; [11]): 4.85 | pIC50 (HLA-A*11:01; [11]): ≤ 3.83 | pIC50 (HLA-A*24:02; [11]): ≤ 3.54

Sequence: ILTDGPERV
pKd (HLA-A*69:01): ≤ 4.70 | pKd (HLA-A*02:03): 6.89 | pKd (HLA-A*02:17): 5.05

Sequence: KAALSSLAK
pIC50 (HLA-A*03:01 [2]; [11]): 5.27 | pIC50 (HLA-A*11:01; [11]): 6.32 | pIC50 (HLA-B*15:01 [1]; [11]): ≤ 3.96

Sequence: KLSLTKLFS
pIC50 (HLA-A*02:01 [7]; source organism: Variola virus): 5.53 | pIC50 (HLA-A*03:01 [2]; source organism: Variola virus): 4.47

Sequence: KLSYRNKPS
pIC50 (HLA-A*02:01 [7]; [12]): ≤ 3.71 | pIC50 (HLA-A*03:01 [2]; [12]): ≤ 3.55

Sequence: KMARAGLGK
pKd (HLA-A*03:01 [3]; source organism: Burkholderia vietnamiensis G4): 7.69

Sequence: KPVSDLYTSM
pKd (HLA-B*07:02; [16]): 9.53 | pKd (HLA-B*35:01; [16]): 7.46 | pKd (HLA-B*51:01 [4]; [16]): ≤ 4.16 | pKd (HLA-B*53:01; [16]): 7.25 | pKd (HLA-B*54:01; [16]): 4.97

Sequence: KVHAVLTEK
pKd (HLA-A*03:01 [3]; source organism: Vibrio parahaemolyticus K5030): 7.69

Sequence: LFGIKCIKK
pIC50 (HLA-A*03:01 [2]; [12]): 4.50 | pIC50 (HLA-A*11:01; [12]): 5.09

Sequence: LIMEFNSLL
pKd (HLA-A*02:01 [8]): 8.28 | pKd (HLA-A*26:01 [9]): ≤ 4.70 | pKd (HLA-B*18:01): ≤ 4.70 | pKd (HLA-B*27:03): ≤ 4.70 | pKd (HLA-B*39:01): ≤ 4.70 | pKd (HLA-B*46:01): ≤ 4.70 | pKd (HLA-B*51:01 [10]): ≤ 4.70 | pKd (HLA-B*57:01): ≤ 4.70

pKd (HLA-B*07:02; [17]): 6.16 | pKd (HLA-B*35:01; [17]): 5.96 | pKd (HLA-B*51:01 [4]; [17]): 6.57 | pKd (HLA-B*53:01; [17]): 7.74 | pKd (HLA-B*54:01; [17]): 6.74
Sequence: LPAMCNVYI

Sequence: LPESDLDKVY
pKd (HLA-B*07:02; [16]): ≤ 4.16 | pKd (HLA-B*35:01; [16]): 7.10 | pKd (HLA-B*51:01 [4]; [16]): ≤ 4.27 | pKd (HLA-B*53:01; [16]): 6.29 | pKd (HLA-B*54:01; [16]): 4.97

pKd (HLA-B*07:02; [17]): 6.96 | pKd (HLA-B*35:01; [17]): 4.97 | pKd (HLA-B*51:01 [4]; [17]): 7.49 | pKd (HLA-B*53:01; [17]): 4.83 | pKd (HLA-B*54:01; [17]): 5.86
Sequence: LPYPQPQL
